B1: ATA_Gua_2: SEQ ID NO: 2; xpt-guanine aptamer linked to 10 bp stem-loop embedding AATAAA; also used in pEGFP vector (nucleic acid)
DNA: AAGGCCAAGAAGGGCGGAAAGATCGCCGTGTAAGCCATACCACATTTGTAGAGGTTTTACTTGCTTTAAAAAACCTCCCACACCTCCCCCTGAACCTGAAACATAAAATGAATGCAATTGTTGTTGTTAACTTGTTTATTGCAGCTTATAATGGTTACAAATAAAGCAATAGCATCACAAATTTCACATAAAGCATAATCGCGTGGATATGGCACGCAAGTTTCTACCGGGCACCGTAAATGTCCGACTGCTTTATTTCGAAAGAAATAAAGCATTTTTTTCACTGCATTCTAGTTGTGGTTTGTCCAAACTCATCAATGTATCTTAACGCGT
B2: ATA_Gua_4: SEQ ID NO: 4; xpt-guanine aptamer linked to 14 bp stem-loop embedding AATAAA; also used in pEGFP vector (nucleic acid)
DNA: AAGGCCAAGAAGGGCGGAAAGATCGCCGTGTAAGCCATACCACATTTGTAGAGGTTTTACTTGCTTTAAAAAACCTCCCACACCTCCCCCTGAACCTGAAACATAAAATGAATGCAATTGTTGTTGTTAACTTGTTTATTGCAGCTTATAATGGTTACAAATAAAGCAATAGCATCACAAATTTTAAAGCAATAATCGCGTGGATATGGCACGCAAGTTTCTACCGGGCACCGTAAATGTCCGACTTGCTTTATTTGTGCGAAAGCACAAATAAAGCATTTTTTTCACTGCATTCTAGTTGTGGTTTGTCCAAACTCATCAATGTATCTTAACGCGT

Key:
EGFP expression = assay: GFP fluorescence of HEK 293 cells transfected with pEGFP riboswitch constructs, treated with guanine; assay type: cell-based; details: 500 μM guanine vs NaOH solvent control
Procedure: (§1) Transfection and aptamer ligand treatment: 3.5×10^4 HEK 293 cells were plated in a 96-well flat bottom plate the day before transfection. Plasmid DNA (500 ng) was added to a tube or a 96-well U-bottom plate. Separately, TransIT-293 reagent (Minis; 1.4 μl) was added to 50 μl opti-mem I media (Life Technologies), and allowed to sit for 5 minutes at room temperature (“RT”). Then, 50 μl of this diluted transfection reagent was added to the DNA, mixed, and incubated at RT for 20 min. Finally, 7 μl of this solution was added to a well of cells in a 96-well plate. Four hours after transfection, the media was aspirated, and new media was added with (i) DMSO (0.5%) or 500 μM guanosine; or (ii) NaOH (2 mM) as solvent control or 500 μM guanine. The induction fold was expressed as the quotient of luciferase activity obtained in the presence of aptamer ligand divided by the value obtained in the absence of the aptamer ligand.
Transfection and measurement of GFP fluorescence: 3.5×10^4 HEK 293 cells were plated in 96-well flat bottom plate the day before transfection. […] GFP fluorescence intensity was measured by Tecan plate reader, using Excitation wavelength at 484 nm, Emission wavelength at 510 nm and Excitation bandwidth at 5 nm. The GFP fluorescence intensity was expressed as the value generated by GFP constructs subtracted by the value generated by cells without transfection.

luciferase expression = assay: Firefly luciferase assay of HEK 293 cells transfected with riboswitch constructs, treated with guanosine or guanine; assay type: cell-based; details: absence of guanine treatment
Procedure: as §1
Firefly luciferase assay of cultured cells: Twenty-four hours after media change, plates were removed from the incubator, and equilibrated to RT for several minutes on a lab bench, then aspirated. Glo-lysis buffer (Promega, […]) was added, and the plates allowed to remain at RT for at least 5 minutes. Then, the well contents were mixed by 50 μL trituration, and 20 μL of each sample was mixed with 20 μL of bright-glo reagent (Promega) that had been diluted to 10% in glo-lysis buffer. 96 wells were spaced on an opaque white 384-well plate. Following a 5-min incubation at RT, luminescence was measured using Tecan machine with 500 mSec read time. The luciferase activity was expressed as mean relative light unit (RLU)±S.D.

Molecule	fold increase in GFP expression on guanine treatment (EGFP expression)	basal level luciferase expression, % of the pFLuc control vector (luciferase expression)
B1	1.5 fold	
B2	1.6 fold	16%
